Source: patent US20160208003A1 (AFFITECH RESEARCH, published 2016)
Residue numbers refer to the chain shown, from its start. Several values for one entry are separate records, joined by “and”; a condition that tells them apart may be missing. Identical values can stand only once.

T1: human CC chemokine receptor 4 (CCR4) (human, UniProt P51679 1-360)
T1 construct: whole, on cells; Always presented on cells; also called CD194; human CCR4
T1 sequence (looked up): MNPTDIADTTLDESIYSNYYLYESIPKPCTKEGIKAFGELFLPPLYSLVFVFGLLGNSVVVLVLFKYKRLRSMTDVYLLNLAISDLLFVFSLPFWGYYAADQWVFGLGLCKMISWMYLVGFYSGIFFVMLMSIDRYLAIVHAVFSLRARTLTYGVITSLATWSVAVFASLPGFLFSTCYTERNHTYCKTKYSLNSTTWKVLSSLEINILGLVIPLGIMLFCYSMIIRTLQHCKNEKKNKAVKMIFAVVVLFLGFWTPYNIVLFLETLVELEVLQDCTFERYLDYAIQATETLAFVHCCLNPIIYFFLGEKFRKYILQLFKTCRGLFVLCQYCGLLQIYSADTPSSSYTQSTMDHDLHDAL

B1: 9E10J IgG (full length human IgG1, lambda) (antibody, V domains shown)
VH: QVQLVQSGAEVKKPGSSVKVSCKASGGTFSSYAISWVRQAPGQGLEWMGGIIPIFGTANYAQKFQGRVTMTRDTSTSTVYMELSSLRSEDTAVYYCARRGGSYFDYWGQGTLVTVSS
VL: SYVLTQPPSASGTPGQSVTISCSGSTSNIGSHYVFWYQQLPGTAPRLLIYRNHQRPSGVPDRLSGSKSGTSASLAISGLRSEDEADYYCAVWDDTLSGWVFGGGTKLTVLG
notes: also called IgG 9E10J; unmodified 9E10J
B2: 9E IgG (full length human IgG1, lambda) (antibody, V domains shown)
VH: B1 VH with S31N, M70I, R72A, T74E, V79A
VL: B1 VL
notes: also called IgG 9E; IgG1 9E

What was measured:
[1] = molecular target: T1, human CC chemokine receptor 4 (CCR4); experiment: calculated from the IC50; DT-40-CCR4+ cells, competitor 3.3 nM biotinylated IgG 9E
Method: (§1) DT40 and CCRF-CEM cells were cultivated as described in Example 2. The cells were harvested from culture flasks, washed 2 times with PBS (400×g, 5 min, 4° C.) and resuspended in PBS containing 0.2% BSA and 0.09% NaN3. 1×10^5 cells per well were aliquoted into V-shaped 96-well plates (Griner Bio-One, Frikenhausen, Germany). Cells were centrifuged (400×g, 5 min, 4° C.) and resuspended in 50 μl IgG 9E10J or KM3060var (dilution series starting at 5 μg/ml) mixed with biotinylated competitor antibody 9E (0.1 or 0.5 μg/ml). The cells were incubated for 2 hours at 4° C., mixing with a pipette every 45 min. The cells were washed three times with 150 μl PBS with 0.2% BSA and 0.09% NaN3 and stained with 3 μg/ml streptavidin PE (BD Biosciences) for 45 minutes at 4° C. Cells were washed, resuspended in 200 μl PBS with 0.2% BSA and 0.09% NaN3, and transferred to a U-shaped 96 well Costar (Corning, Schiphol-Rijik, The Netherlands) plate for flow cytometry using an FACS Canto II flow cytometer (BD Biosciences, Heidelberg, Germany).

[2] = molecular target: T1, human CC chemokine receptor 4 (CCR4); experiment: flow cytometry competition on CCRF-CEM cells; IgG titrated, competitor biotinylated TARC (ca. 20 nM)
Method: The competition binding assays were performed with biotinylated MDC or biotinylated TARC on DT-40-CCR4+ and CCRF-CEM cells. DT40 and CCRF-CEM cells were cultured as described in Example 2. TARC and MDC were biotinylated using standard procedures. The biotinylation process causes some losses, so the concentrations of biotinylated MDC and TARC recited herein are approximate.
The cells were harvested from culture flasks, washed 2 times with PBS (400×g, 5 min, 4° C.) and resuspended in PBS containing 0.2% BSA and 0.09% NaN3. 1×10^5 cells per well were aliquoted into V-shaped 96-well plates (Greiner Bio-One, Frikenhausen, Germany). Cells were centrifuged (400×g, 5 min, 4° C.) and resuspended in 50 μl IgG, single chain or unlabeled ligand (1:10 dilution series starting on 100/500/26, 4 μg/ml) mixed with a fixed concentration of biotinylated ligand (10 or 20 nM, see legend to FIG. 24). The cells were incubated for 2 hours at 4° C. and mixed with a pipette every 45 min. The cells were washed three times with 150 μl PBS with 0.2% BSA and 0.09% NaN3 and stained with 3 μg/ml streptavidin PE (BD Biosciences) for 45 minutes at 4° C. […] Apparent binding affinities (KD) were calculated according to the following equation derived from previously described methods (Kipriyanov et al, 1997b; Schodin & Kranz, 1993): […]

[3] = molecular target: T1, human CC chemokine receptor 4 (CCR4); experiment: cell-based or functional assay
[4] = molecular target: T1, human CC chemokine receptor 4 (CCR4); experiment: flow cytometry, IgG titration on CCR4+ DT40 cells; one site-specific binding fit (Prism)
Method: (§2) The IgG forms of antibodies 17G, 9E and KM3060var using various CCR4⁺ cell types were used (see Example 2).
(§3) For the flow cytometry experiments, the cells were harvested from the culture flasks, washed 2 times with PBS, re-suspended in PBS with 0.2% BSA and 0.09% NaN₃ and finally aliquoted 1×10⁵ cells per well into V-shaped 96-well plates (Greiner Bio-One, Frickenhausen, Germany). Cells were centrifuged at 400×g for 5 min and then incubated at 4° C. for 45 min with different antibody dilutions.
(§4) After washing with PBS with 0.2% BSA and 0.09% NaN₃, the cells were stained with 10 μg/ml of RPE-conjugated goat anti-human IgG (AbDSerotec, Düsseldorf, Germany) for 30 minutes at 4° C. The stained cells were washed, re-suspended in 200 μl PBS with 0.2% BSA and 0.09% NaN₃ and transferred to a U-shaped 96-well plate (Corning, Schiphol-Rijk, The Netherlands) for acquisition on EasyCyte flow cytometer (Guava Technologies, Hayward, Calif., USA).

[5] = molecular target: T1, human CC chemokine receptor 4 (CCR4); experiment: calculated from the IC50 (KD=IC50/(1+[bio-IgG 9E]/KD 9E)); DT-40-CCR4+ cells, competitor 3.3 nM biotinylated IgG 9E
Method: as §1

[6] = molecular target: T1, human CC chemokine receptor 4 (CCR4); experiment: flow cytometry, IgG titration on CCRF-CEM cells; one site-specific binding fit (Prism)
Method: as §2, §3, §4

Binder	Kd [1] [nM]	IC50 [2]	ADCC of CCRF-CEM cells with human PBMCs, EC50 [3] [µg/mL]	Ca++ flux in CCRF-CEM cells: signal response to MDC stimulation (% of MDC in the absence of IgGs), IgG 10 µg/mL [3] [%]	Ca++ flux in CCRF-CEM cells: signal response to TARC stimulation (% of TARC alone), IgG 10 µg/mL [3] [%]	Kd [4] [nM]	Kd [5] [nM]	Kd [6] [nM]
B1	0.09	4.26 nM and 4.57 nM						
B2			0.046	64	3	0.72	2.1	0.39
